# Test results: US20170183667A1 (ANAEROPHARMA SCIENCE, published 2017)
# Experiments:
# [1] = target: T1, Recombinant Human PD-1 Fc Chimera (R&D Systems) (human, UniProt Q15116 25-167); experiment: ELISA, hPD-1 Fc chimera immobilised, scFv 100 ng/mL
# T1 construct: Bought reagent; also called hPD-1; Fc part of the bought chimera not given, not described
# Description: (§1) After the solution was removed, 350 μL of 1×PBS was dispensed and the solution was removed. This operation was repeated three times to carry out washing. In the above plates, 350 μL of a 1% BSA solution was dispensed and incubated at room temperature for 2 hours to carry out blocking. After removing the solution, 350 μL of 1×PBS was dispensed and the solution was removed. This operation was repeated three times to carry out washing.
# (§2) Each solution (100 μL) was dispensed in the plates to which blocking treatment was already applied. […] To a blank well, a signal enhancing reagent (100 μL) alone was dispensed. After the plates were sealed and incubated at room temperature for 2 hours, immobilized hPD-1 was allowed to react with each of the scFv antibodies. After the solution was removed, 350 μL of 1×PBS was dispensed and the solution was removed. This operation was repeated three times to carry out washing.
# (§3) This solution (200 μL) was dispensed in the plates. The plates were sealed and incubated at room temperature for 20 minutes. […] Absorbance at 450 nm was measured, whereas absorbance at 570 nm was measured as a control.
# [2] = target: T1, Recombinant Human PD-1 Fc Chimera (R&D …); experiment: ELISA, hPD-1 Fc chimera immobilised, scFv 1 ng/mL
# Description: as §1, §2, §3
# [3] = target: T2, Recombinant Mouse PD-1 Fc Chimera (R&D Systems) (mouse, UniProt Q02242 25-167); experiment: ELISA, mPD-1 Fc chimera immobilised, scFv 100 ng/mL
# T2 construct: Bought reagent; also called mPD-1; Fc part of the bought chimera not given, not described
# T2 sequence (looked up): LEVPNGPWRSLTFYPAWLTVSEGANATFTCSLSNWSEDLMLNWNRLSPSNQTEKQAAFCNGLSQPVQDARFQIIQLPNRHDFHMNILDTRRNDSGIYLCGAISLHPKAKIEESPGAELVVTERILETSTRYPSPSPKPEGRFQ
# Description: (§4) After the solution was removed, 350 μL of 1×PBS was dispensed and the solution was removed. This operation was repeated three times to carry out washing. In the above plates, 350 μL of a 1% BSA solution was dispensed and incubated at room temperature for 2 hours to perform blocking. After the solution was removed, 350 μL of 1×PBS was dispensed and the solution was removed. This operation was repeated three times to carry out washing.
# (§5) The anti-PD-1-3 scFv antibody purified from a bacterium of the genus Bifidobacterium was diluted with a signal enhancing reagent (Signal Enhancer HIKARI, manufactured by Nacalai Tesque) to prepare solutions having a concentration of 1000 ng/mL, 100 ng/mL and 10 ng/mL. Each solution (100 μL) was dispensed in the plates to which blocking treatment was already applied. […] To blank wells, a signal enhancing reagent (100 μL) alone was dispensed. After the plates were sealed and incubated at room temperature for 2 hours, immobilized mPD-1 was allowed to react with the anti-PD-1-3 scFv antibody. After the solution was removed, 350 μL of 1×PBS was dispensed and the solution was removed. This operation was repeated three times to carry out washing.
# (§6) Absorbance at 450 nm was measured, whereas absorbance at 570 nm was measured as a control.
# [4] = target: T1, Recombinant Human PD-1 Fc Chimera (R&D …); experiment: ELISA, hPD-1 Fc chimera immobilised, scFv 1000 ng/mL
# Description: as §1, §2, §3
# [5] = target: T2, Recombinant Mouse PD-1 Fc Chimera (R&D …); experiment: ELISA, mPD-1 Fc chimera immobilised, scFv 1000 ng/mL
# Description: as §4, §5, §6
# [6] = target: T1, Recombinant Human PD-1 Fc Chimera (R&D …); experiment: ELISA, hPD-1 Fc chimera immobilised, scFv 10 ng/mL
# Description: as §1, §2, §3
# [7] = target: T2, Recombinant Mouse PD-1 Fc Chimera (R&D …); experiment: ELISA, mPD-1 Fc chimera immobilised, scFv 10 ng/mL
# Description: as §4, §5, §6
# [8] = target: T3, Recombinant Human CTLA-4-Fc Chimera, carrier-free (BioLegend) (human, UniProt P16410 36-161); experiment: ELISA, hCTLA-4-Fc chimera immobilised
# T3 construct: Bought reagent; also called hCTLA-4; Fc part of the bought chimera not given, not described
# T3 sequence (looked up): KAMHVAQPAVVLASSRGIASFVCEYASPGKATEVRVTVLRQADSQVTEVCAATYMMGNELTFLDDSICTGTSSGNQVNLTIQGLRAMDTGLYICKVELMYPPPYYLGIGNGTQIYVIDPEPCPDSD
# T1 sequence (Q15116 25-167, change not shown): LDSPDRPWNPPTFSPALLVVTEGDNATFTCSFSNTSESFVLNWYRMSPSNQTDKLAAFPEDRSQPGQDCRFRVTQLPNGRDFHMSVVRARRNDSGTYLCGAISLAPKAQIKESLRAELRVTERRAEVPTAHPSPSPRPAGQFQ
Binder,absorbance 450 nm (570 nm as control) [1],absorbance 450 nm (570 nm as control) [2],absorbance 450 nm (570 nm as control) [3],absorbance 450 nm (570 nm as control) [4],absorbance 450 nm (570 nm as control) [5],absorbance 450 nm (570 nm as control) [6],absorbance 450 nm (570 nm as control) [7],binding result [8]
"anti-PD-1-2 scFv antibody purified from Bifidobacterium longum 105-A/pHuSP7L20-scFv-PD-1-2 strain (scFv, also called anti-human PD-1 antibody) scFv: DSAQTSAVVSSRSFPKASSVMQVQLQESGPGLVKPSQSLSLTCTVTGHSITSDYAWNWIRQFPGDKLEWMGYISYSGYTTYNPSLKSRVSITRDTSKNQFFLQLNSVTTEDTATYFCARDLDYGPWFAYWGQGTTVTVSSGGGGSGGGGSGGGGSDIQMTQSPASLSASVGETVTLTCRASENIHNYLAWYQQKQGKSPQLLVYNVKTLADGVPSRFSGSGSGTQYSLKINSLQPEDFGSYYCQHFWSSPWTFGGGTKLEIKRHHHHHH",3.06,0.058,-0.01,2.82,0.014,0.912,0.075,
"anti-PD-1-3 scFv antibody purified from Bifidobacterium longum 105-A/pHuSP7L20-scFv-PD-1-3 strain (scFv, also called anti-mouse PD-1 scFv antibody; mPD-1 scFv) scFv: DSAQTSAVVSSRSFPKASSVMEVRLLESGGGLVKPEGSLKLSCVASGFTFSDYFMSWVRQAPGKGLEWVAHIYTKSYNYATYYSGSVKGRFTISRDDSRSMVYLQMNNLRTEDTATYYCTRDGSGYPSLDFWGQGTQVTVSSGGGGSGGGGSGGGGSYELTQPPSASVNVGETVKITCSGDQLPKYFADWFHQRSDQTILQVIYDDNKRPSGIPERISGSSSGTTATLTIRDVRAEDEGDYYCFSGYVDSDSKLYVFGSGTQLTVLGHHHHHH",,,0.561,,3.11,,0.312,no binding (tested: up to 1000 ng/mL)
anti-CTLA-4-1 scFv antibody purified from Bifidobacterium longum 105-A/pHuSP7L20-scFv-CTLA-4-1 strain (scFv) scFv: DSAQTSAVVSSRSFPKASSVQVQLVESGGGVVQPGRSLRLSCAASGFTFSSYGMHWVRQAPGKGLEWVAVIWYDGSNKYYADSVKGRFTISRDNSKNTLYLQMNSLRAEDTAVYYCARDPRGATLYYYYYGMDVWGQGTTVTVSSGGGGSGGGGSGGGGSDIQMTQSPSSLSASVGDRVTITCRASQSINSYLDWYQQKPGKAPKLLIYAASSLQSGVPSRFSGSGSGTDFTLTISSLQPEDFATYYCQQYYSTPFTFGPGTKVEIKHHHHHH,-0.117,-0.092,,-0.038,,-0.106,,
